T1: Myo5 SH3 (MYO5_YEAST), Q04439
T1 chain: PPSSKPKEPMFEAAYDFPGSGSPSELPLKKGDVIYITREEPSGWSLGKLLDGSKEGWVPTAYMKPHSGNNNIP

T2: Yhr016c SH3 (YSC84_YEAST), P32793
T2 chain: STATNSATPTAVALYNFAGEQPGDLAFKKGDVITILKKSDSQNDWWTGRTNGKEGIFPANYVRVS

T3: Rvs167 SH3 (RV167_YEAST), P39743
T3 chain: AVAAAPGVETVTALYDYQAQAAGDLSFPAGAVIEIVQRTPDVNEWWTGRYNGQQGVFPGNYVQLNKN

T4: Boi1 SH3 (BOI1_YEAST), P38041
T4 chain: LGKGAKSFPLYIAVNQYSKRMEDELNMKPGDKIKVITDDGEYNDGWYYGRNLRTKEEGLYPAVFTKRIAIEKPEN

T5: Boi2 SH3 (BOI2_YEAST), P39969
T5 chain: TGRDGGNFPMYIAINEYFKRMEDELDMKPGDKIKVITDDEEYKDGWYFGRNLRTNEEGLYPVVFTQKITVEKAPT

T6: Yfr024 SH3 (LSB3_YEAST), P43603
T6 chain: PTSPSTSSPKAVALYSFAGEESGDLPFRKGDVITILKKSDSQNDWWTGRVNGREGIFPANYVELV


Assays:
Assay in all cases: SPOT array
[1] = biological target: T1, Myo5 SH3 (MYO5_YEAST), Q04439
[2] = biological target: T2, Yhr016c SH3 (YSC84_YEAST), P32793
[3] = biological target: T3, Rvs167 SH3 (RV167_YEAST), P39743
[4] = biological target: T4, Boi1 SH3 (BOI1_YEAST), P38041
[5] = biological target: Sho1 SH3 (SHO1_YEAST), P40073
[6] = biological target: T5, Boi2 SH3 (BOI2_YEAST), P39969
[7] = biological target: T6, Yfr024 SH3 (LSB3_YEAST), P43603

Sequence of Sho1 SH3 (SHO1_YEAST), P40073 (P40073 295-366): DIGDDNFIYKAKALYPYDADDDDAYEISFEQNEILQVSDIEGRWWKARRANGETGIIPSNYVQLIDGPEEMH

Row | Binder | normalised SPOT signal, Boehringer light units (BLU); mean over the file's lines of this peptide [1] | normalised SPOT signal, Boehringer light units (BLU); mean over the file's lines of this peptide [2] | normalised SPOT signal, Boehringer light units (BLU); mean over the file's lines of this peptide [3] | normalised SPOT signal, Boehringer light units (BLU); mean over the file's lines of this peptide [4] | normalised SPOT signal, Boehringer light units (BLU); mean over the file's lines of this peptide [5] | normalised SPOT signal, Boehringer light units (BLU); mean over the file's lines of this peptide [6] | normalised SPOT signal, Boehringer light units (BLU); mean over the file's lines of this peptide [7]
1 | DLDWRKIPFLPKEI [YLR427W 487-500] | 250 | 154 | 177 | 2880 | 1070 | 26.3 | 790
2 | DLKKKYAPDPPITH [YNR028W 35-48] | 186 | 14.6 | 27.7 | 164 | 4.2 | 21 | 16.5
3 | DLQKKYEPSPPATH [YCR069W 34-47] | 225 | 37.1 | 40.7 | 114 | 32.6 | 2.8 | 0
4 | DLSLRYAPNLPRVI [YLL048C 1385-1398] | 250 | 19.3 | 41.9 | 352 | 35 | 18.8 | 156
5 | DNELKDEPEPPNLI [YGR093W 206-219] | 179 | 16.3 | 25.3 | 17.2 | 32.3 | 26 | 0
6 | DPSDKSLPQQPFHK [YJR006W 304-317] | 192 | 36.7 | 55.1 | 0 | 397 | 25.2 | 39.2
7 | DQLNRLLPNLPEEE [YJR090C 138-151] | 47.5 | 23200 | 682 | 106 | 12000 | 18.1 | 12300
8 | DRKNRAPPQRPRFN [YER131W 91-104] | 2430 | 162 | 332 | 4240 | 134 | 24.1 | 3740
9 | DRLSKIKPFLPQSI [YLR247C 271-284] | 226 | 37.2 | 154 | 804 | 237 | 16.3 | 136
10 | DSVLRQKPDKPRPI [YMR032W 380-393] | 135 | 9.2 | 43.8 | 1240 | 26.5 | 10.2 | 114
11 | DSYSRSRPTRPLGY [YNL165W 293-306] | 261 | 177 | 354 | 13600 | 52.1 | 37.1 | 2260
12 | DTYARNNPDFPPQN [YDR164C 226-239] | 138 | 39.1 | 46.3 | 118 | 4.9 | 31.6 | 17.2
13 | DVNHRYPPMAPTTV [YPR008W 508-521] | 176 | 15.7 | 52.3 | 57.4 | 39.1 | 34 | 21.3

From PMC314469, “Protein Interaction Networks by Proteome Peptide Scanning” (PLoS Biology, 2004)
